ChEMBL document CHEMBL2074002, “Functional analysis of a canalicular multispecific organic anion transporter cloned from rat liver” (J Biol Chem, 1998)

Substrate: N[C@@H](CCC(=O)N[C@H](CSc1ccc([N+](=O)[O-])cc1[N+](=O)[O-])C(=O)NCC(=O)O)C(=O)O
Assay: TP_TRANSPORTER: uptake in membrane vesicle from Mrp2-expressing NIH/3T3 cell
Format: functional, cell membranes, NIH3T3

B1: ATP-binding cassette sub-family C member 2 (Rattus norvegicus) (protein)
chain: MDKFCNSTFWDLSLLESPEADLPLCFEQTVLVWIPLGFLWLLAPWQLYSVYRSRTKRSSITKFYLAKQVFVVFLLILAAIDLSLALTEDTGQATVPPVRYTNPILYLCTWLLVLAVQHSRQWCVRKNSWFLSLFWILSVLCGVFQFQTLIRALLKDSKSNMAYSYLFFVSYGFQIVLLILTAFSGPSDSTQTPSVTASFLSSITFSWYDRTVLKGYKHPLTLEDVWDIDEGFKTRSVTSKFEAAMTKDLQKARQAFQRRLQKSQRKPEATLHGLNKKQSQSQDVLVLEEAKKKSEKTTKDYPKSWLIKSLFKTFHVVILKSFILKLIHDLLVFLNPQLLKLLIGFVKSSNSYVWFGYICAILMFAVTLIQSFCLQSYFQHCFVLGMCVRTTVMSSIYKKALTLSNLARKQYTIGETVNLMSVDSQKLMDATNYMQLVWSSVIQITLSIFFLWRELGPSILAGVGVMVLLIPVNGVLATKIRNIQVQNMKNKDKRLKIMNEILSGIKILKYFAWEPSFQEQVQGIRKKELKNLLRFGQLQSLLIFILQITPILVSVVTFSVYVLVDSANVLNAEKAFTSITLFNILRFPLSMLPMVTSSILQASVSVDRLERYLGGDDLDTSAIRRVSNFDKAVKFSEASFTWDPDLEATIQDVNLDIKPGQLVAVVGTVGSGKSSLVSAMLGEMENVHGHITIQGSTAYVPQQSWIQNGTIKDNILFGSEYNEKKYQQVLKACALLPDLEILPGGDMAEIGEKGINLSGGQKQRVSLARAAYQDADIYILDDPLSAVDAHVGKHIFNKVVGPNGLLAGKTRIFVTHGIHFLPQVDEIVVLGKGTILEKGSYRDLLDKKGVFARNWKTFMKHSGPEGEATVNNDSEAEDDDDGLIPTMEEIPEDAASLAMRRENSLRRTLSRSSRSSSRRGKSLKNSLKIKNVNVLKEKEKEVEGQKLIKKEFVETGKVKFSIYLKYLQAVGWWSILFIILFYGLNNVAFIGSNLWLSAWTSDSDNLNGTNNSSSHRDMRIGVFGALGLAQGICLLISTLWSIYACRNASKALHGQLLTNILRAPMRFFDTTPTGRIVNRFSGDISTVDDLLPQTLRSWMMCFFGIAGTLVMICMATPVFAIIIIPLSILYISVQVFYVATSRQLRRLDSVTKSPIYSHFSETVTGLPIIRAFEHQQRFLAWNEKQIDINQKCVFSWITSNRWLAIRLELVGNLVVFCSALLLVIYRKTLTGDVVGFVLSNALNITQTLNWLVRMTSEAETNIVAVERISEYINVENEAPWVTDKRPPADWPRHGEIQFNNYQVRYRPELDLVLKGITCNIKSGEKVGVVGRTGAGKSSLTNCLFRILESAGGQIIIDGIDVASIGLHDLRERLTIIPQDPILFSGSLRMNLDPFNKYSDEEVWRALELAHLRSFVSGLQLGLLSEVTEGGDNLSIGQRQLLCLGRAVLRKSKILVLDEATAAVDLETDSLIQTTIRKEFSQCTVITIAHRLHTIMDSDKIMVLDNGKIVEYGSPEELLSNRGSFYLMAKEAGIENVNHTEL
Km: 0.175 µM
